From patent US20180155451A1 (published 2018)

biological target: T1, FcγRIa extracellular domain with C-terminal His tag (human, UniProt P12314 16-292); test: SPR Biacore, relative FcγRIa binding vs GpH7-A5/GpH7-B3/GpL16-k0
T1 construct: extracellular domain; also called FcgRI; CD64; not shown: His tag at the C terminus
T1 sequence (P12314 16-292): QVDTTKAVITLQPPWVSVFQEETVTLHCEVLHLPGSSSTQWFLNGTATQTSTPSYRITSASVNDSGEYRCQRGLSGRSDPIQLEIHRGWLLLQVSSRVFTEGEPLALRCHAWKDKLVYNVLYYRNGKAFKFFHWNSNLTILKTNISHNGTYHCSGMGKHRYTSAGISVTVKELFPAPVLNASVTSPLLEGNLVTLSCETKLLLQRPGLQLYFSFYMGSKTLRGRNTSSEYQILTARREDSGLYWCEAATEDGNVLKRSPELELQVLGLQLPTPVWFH

Binder	He/Con_1a
GpH7-A5/GpH7-B3 variant S337_20W/GpL16-k0 (antibody, human IgG1, kappa, mutation in one H chain only; also called He Ab S337_20W; S337W) heavy 1: not shown heavy 2: not shown light: DIVMTQSPLSLPVTPGEPASISCQASESLVHSNRNTYLHWYLQKPGQSPQLLIYKVSNRFSGVPDRFSGSGSGTDFTLKISRVEAEDVGVYYCSQNTHVPPTFGQGTKVEIERTVAAPSVFIFPPSDEQLKSGTASVVCLLNNFYPREAKVQWKVDNALQSGNSQESVTEQDSKDSTYSLSSTLTLSKADYEKHKVYACEVTHQGLSSPVTKSFNRGEC	105 % of HeCon Ab (=100)
GpH7-A5/GpH7-B3 variant T335_06M/GpL16-k0 (antibody, human IgG1, kappa, mutation in one H chain only; also called He Ab T335_06M; T335M) heavy 1: not shown heavy 2: not shown light: DIVMTQSPLSLPVTPGEPASISCQASESLVHSNRNTYLHWYLQKPGQSPQLLIYKVSNRFSGVPDRFSGSGSGTDFTLKISRVEAEDVGVYYCSQNTHVPPTFGQGTKVEIERTVAAPSVFIFPPSDEQLKSGTASVVCLLNNFYPREAKVQWKVDNALQSGNSQESVTEQDSKDSTYSLSSTLTLSKADYEKHKVYACEVTHQGLSSPVTKSFNRGEC	107 % of HeCon Ab (=100)
GpH7-A5/GpH7-B3 variant T335_04F/GpL16-k0 (antibody, human IgG1, kappa, mutation in one H chain only; also called He Ab T335_04F; T335F) heavy 1: not shown heavy 2: not shown light: DIVMTQSPLSLPVTPGEPASISCQASESLVHSNRNTYLHWYLQKPGQSPQLLIYKVSNRFSGVPDRFSGSGSGTDFTLKISRVEAEDVGVYYCSQNTHVPPTFGQGTKVEIERTVAAPSVFIFPPSDEQLKSGTASVVCLLNNFYPREAKVQWKVDNALQSGNSQESVTEQDSKDSTYSLSSTLTLSKADYEKHKVYACEVTHQGLSSPVTKSFNRGEC	105 % of HeCon Ab (=100)
GpH7-A5/GpH7-B3 variant S337_09D/GpL16-k0 (antibody, human IgG1, kappa, mutation in one H chain only; also called He Ab S337_09D; S337D) heavy 1: not shown heavy 2: not shown light: DIVMTQSPLSLPVTPGEPASISCQASESLVHSNRNTYLHWYLQKPGQSPQLLIYKVSNRFSGVPDRFSGSGSGTDFTLKISRVEAEDVGVYYCSQNTHVPPTFGQGTKVEIERTVAAPSVFIFPPSDEQLKSGTASVVCLLNNFYPREAKVQWKVDNALQSGNSQESVTEQDSKDSTYSLSSTLTLSKADYEKHKVYACEVTHQGLSSPVTKSFNRGEC	106 % of HeCon Ab (=100)
GpH7-A5/GpH7-B3 variant S337_02A/GpL16-k0 (antibody, human IgG1, kappa, mutation in one H chain only; also called He Ab S337_02A; S337A) heavy 1: not shown heavy 2: not shown light: DIVMTQSPLSLPVTPGEPASISCQASESLVHSNRNTYLHWYLQKPGQSPQLLIYKVSNRFSGVPDRFSGSGSGTDFTLKISRVEAEDVGVYYCSQNTHVPPTFGQGTKVEIERTVAAPSVFIFPPSDEQLKSGTASVVCLLNNFYPREAKVQWKVDNALQSGNSQESVTEQDSKDSTYSLSSTLTLSKADYEKHKVYACEVTHQGLSSPVTKSFNRGEC	106 % of HeCon Ab (=100)
GpH7-A5/GpH7-B3 variant S337_12R/GpL16-k0 (antibody, human IgG1, kappa, mutation in one H chain only; also called He Ab S337_12R; S337R) heavy 1: not shown heavy 2: not shown light: DIVMTQSPLSLPVTPGEPASISCQASESLVHSNRNTYLHWYLQKPGQSPQLLIYKVSNRFSGVPDRFSGSGSGTDFTLKISRVEAEDVGVYYCSQNTHVPPTFGQGTKVEIERTVAAPSVFIFPPSDEQLKSGTASVVCLLNNFYPREAKVQWKVDNALQSGNSQESVTEQDSKDSTYSLSSTLTLSKADYEKHKVYACEVTHQGLSSPVTKSFNRGEC	106 % of HeCon Ab (=100)

The next lines start with the values.

He/Con_1a	Binder
109 % of HeCon Ab (=100)	GpH7-A5/GpH7-B3 variant T335_07I/GpL16-k0 (antibody, human IgG1, kappa, mutation in one H chain only; also called He Ab T335_07I; T335I) heavy 1: not shown heavy 2: not shown light: DIVMTQSPLSLPVTPGEPASISCQASESLVHSNRNTYLHWYLQKPGQSPQLLIYKVSNRFSGVPDRFSGSGSGTDFTLKISRVEAEDVGVYYCSQNTHVPPTFGQGTKVEIERTVAAPSVFIFPPSDEQLKSGTASVVCLLNNFYPREAKVQWKVDNALQSGNSQESVTEQDSKDSTYSLSSTLTLSKADYEKHKVYACEVTHQGLSSPVTKSFNRGEC
113 % of HeCon Ab (=100)	GpH7-A5/GpH7-B3 variant T335_12R/GpL16-k0 (antibody, human IgG1, kappa, mutation in one H chain only; also called He Ab T335_12R; T335R) heavy 1: not shown heavy 2: not shown light: DIVMTQSPLSLPVTPGEPASISCQASESLVHSNRNTYLHWYLQKPGQSPQLLIYKVSNRFSGVPDRFSGSGSGTDFTLKISRVEAEDVGVYYCSQNTHVPPTFGQGTKVEIERTVAAPSVFIFPPSDEQLKSGTASVVCLLNNFYPREAKVQWKVDNALQSGNSQESVTEQDSKDSTYSLSSTLTLSKADYEKHKVYACEVTHQGLSSPVTKSFNRGEC
108 % of HeCon Ab (=100)	GpH7-A5/GpH7-B3 variant T335_09D/GpL16-k0 (antibody, human IgG1, kappa, mutation in one H chain only; also called He Ab T335_09D; T335D) heavy 1: not shown heavy 2: not shown light: DIVMTQSPLSLPVTPGEPASISCQASESLVHSNRNTYLHWYLQKPGQSPQLLIYKVSNRFSGVPDRFSGSGSGTDFTLKISRVEAEDVGVYYCSQNTHVPPTFGQGTKVEIERTVAAPSVFIFPPSDEQLKSGTASVVCLLNNFYPREAKVQWKVDNALQSGNSQESVTEQDSKDSTYSLSSTLTLSKADYEKHKVYACEVTHQGLSSPVTKSFNRGEC
111 % of HeCon Ab (=100)	GpH7-A5/GpH7-B3 variant T335_11K/GpL16-k0 (antibody, human IgG1, kappa, mutation in one H chain only; also called He Ab T335_11K; T335K) heavy 1: not shown heavy 2: not shown light: DIVMTQSPLSLPVTPGEPASISCQASESLVHSNRNTYLHWYLQKPGQSPQLLIYKVSNRFSGVPDRFSGSGSGTDFTLKISRVEAEDVGVYYCSQNTHVPPTFGQGTKVEIERTVAAPSVFIFPPSDEQLKSGTASVVCLLNNFYPREAKVQWKVDNALQSGNSQESVTEQDSKDSTYSLSSTLTLSKADYEKHKVYACEVTHQGLSSPVTKSFNRGEC
115 % of HeCon Ab (=100)	GpH7-A5/GpH7-B3 variant T335_08L/GpL16-k0 (antibody, human IgG1, kappa, mutation in one H chain only; also called He Ab T335_08L; T335L) heavy 1: not shown heavy 2: not shown light: DIVMTQSPLSLPVTPGEPASISCQASESLVHSNRNTYLHWYLQKPGQSPQLLIYKVSNRFSGVPDRFSGSGSGTDFTLKISRVEAEDVGVYYCSQNTHVPPTFGQGTKVEIERTVAAPSVFIFPPSDEQLKSGTASVVCLLNNFYPREAKVQWKVDNALQSGNSQESVTEQDSKDSTYSLSSTLTLSKADYEKHKVYACEVTHQGLSSPVTKSFNRGEC
